This is an account of results in patent US20190233493A1 (Sanofi, published 2019).

*1 amine or outer side, *2 acyl side, *3 side chain or, on linkers, in order; H or OH if unused. Primed or numbered codes have the meaning given here. Side-chain parts run from the residue outwards. [ ]: non-standard residue; d: D form. The star is where a group is joined. TTDS(3) = O=C(CCC(=O)[*:2])NCCCOCCOCCOCCCN[*:1]; Lys(Me3) = C[N+](C)(C)CCCC[C@H](N)C(=O)O; Arg(Me2s) = CN=C(NC)NCCC[C@H](N)C(=O)O; γGlu = O=C(O)[C@H](CCC(=O)[*:2])N[*:1]; Arg(Me) = CNC(=N)NCCC[C@H](N)C(=O)O; Stearoyl = CCCCCCCCCCCCCCCCCC(=O)*; Palmitoyl = CCCCCCCCCCCCCCCC(=O)*; αMeF = C[C@](N)(Cc1ccccc1)C(=O)O; αMeK = C[C@](N)(CCCCN)C(=O)O; Nle = CCCC[C@H](N)C(=O)O; PEG2′ = PEG2 spacer unit; PEG2″ = not defined here; Aib = CC(C)(N)C(=O)O

The test addresses T1, RXFP1 receptor (UniProt Q9HBX9 1-757, limits assumed).
T1 sequence (looked up): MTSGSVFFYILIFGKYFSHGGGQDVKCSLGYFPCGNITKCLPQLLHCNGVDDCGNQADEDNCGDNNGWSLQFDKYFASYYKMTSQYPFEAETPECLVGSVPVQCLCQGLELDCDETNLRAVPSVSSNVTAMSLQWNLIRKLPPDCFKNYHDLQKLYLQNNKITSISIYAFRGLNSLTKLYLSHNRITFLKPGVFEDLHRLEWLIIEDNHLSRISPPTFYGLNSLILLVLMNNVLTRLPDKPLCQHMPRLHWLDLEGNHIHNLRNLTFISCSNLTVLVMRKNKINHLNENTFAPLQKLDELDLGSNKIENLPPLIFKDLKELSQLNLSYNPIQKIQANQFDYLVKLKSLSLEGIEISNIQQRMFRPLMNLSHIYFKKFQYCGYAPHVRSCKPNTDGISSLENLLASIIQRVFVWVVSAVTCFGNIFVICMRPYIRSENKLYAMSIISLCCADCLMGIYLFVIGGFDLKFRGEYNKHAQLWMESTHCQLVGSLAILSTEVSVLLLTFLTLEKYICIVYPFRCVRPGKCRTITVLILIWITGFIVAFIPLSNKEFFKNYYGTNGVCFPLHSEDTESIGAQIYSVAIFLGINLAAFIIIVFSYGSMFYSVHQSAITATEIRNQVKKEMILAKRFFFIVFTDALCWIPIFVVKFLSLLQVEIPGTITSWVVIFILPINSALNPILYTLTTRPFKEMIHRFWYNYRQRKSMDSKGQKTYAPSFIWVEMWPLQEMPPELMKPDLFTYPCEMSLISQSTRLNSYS
The test is described as follows: cell-based or functional assay.

B1: peptide of SEQ ID NO: 148 (peptide)
peptide: Ac-LEGREKVRAK(Ac)I[Aib][Aib]EG[Nle]STWS[Aib][Arg(Me2s)]KK(Ac)K-NH2
modifications: not fully specified (residue 25); printed as Ac-L-E-G-R-E-K-V-R-A-K(Ac)-I-Aib-Aib-E-G-Nle-S-T-W-S-Aib-Rds-K-K(Ac)-K(PEG2-PEG2-PEG2-gE-gE-gE-Stea)-NH2
On to B1, for which the “EC50 (nM), OVCAR 5 cells (cAMP)” value was determined as 0.11 nM and the “EMax, OVCAR 5 cells (cAMP)” value was found to be 94%.
In the same order, the values of Ac-LEGREKVRAK(Ac)I[Aib][Aib]EG[Nle]STWS[αMeK][Arg(Me)][Lys(Me3)]K(Ac)K([PEG2′-PEG2′-PEG2′-PEG2′-γGlu-γGlu-γGlu-γGlu-Palmitoyl])-NH2 [peptide of SEQ ID NO: 141] are 0.16 nM and 87%.

B2: peptide of SEQ ID NO: 139 (peptide)
peptide: Ac-LEGREKVRAK(Ac)I[Aib][Aib]EG[Nle]STFSXAAK(Ac)[PEG2′][PEG2′][PEG2′][PEG2′][γGlu][γGlu][γGlu]K([γGlu-Palmitoyl])-NH2
modifications: not fully specified (some residues); printed as Ac-L-E-G-R-E-K-V-R-A-K(Ac)-I-Aib-Aib-E-G-Nle-S-T-F-S-Mly-A-A-K(Ac)-PEG2-PEG2-PEG2-PEG2-gE-gE-gE-K(gE-Palm)-NH2
For the molecule B2, the “EC50 (nM), OVCAR 5 cells (cAMP)” value stood at 0.3 nM and the “EMax, OVCAR 5 cells (cAMP)” value turned out to be 92%.
As for Ac-LEGREKVRAK(Ac)I[Aib][Aib]EG[Nle]STFS[αMeK]RAK(Ac)[PEG2″][PEG2″][PEG2″][PEG2″][γGlu][γGlu][γGlu]K([γGlu-Palmitoyl])-NH2 [peptide of SEQ ID NO: 149], the “EC50 (nM), OVCAR 5 cells (cAMP)” value worked out at 0.11 nM and the “EMax, OVCAR 5 cells (cAMP)” value was found to be 87%.
In the same order, the values of Ac-LEGREKVRAK(Ac)I[Aib][Aib]EG[Nle]STWS[Aib]AAK(Ac)K([PEG2′-PEG2′-PEG2′-γGlu-γGlu-γGlu-Stearoyl])-NH2 [peptide of SEQ ID NO: 155] are 1.17 nM and 95%.
In the same order, the values of Ac-LEGREKVRAK(Ac)I[Aib][Aib]EG[Nle]STFS[αMeK]RAK(Ac)K([PEG2′-PEG2′-PEG2′-PEG2′-γGlu-γGlu-γGlu-γGlu-Palmitoyl])-NH2 [peptide of SEQ ID NO: 154] are 0.4 nM and 92%.
The like results for Ac-LEGREKVRAK(Ac)I[Aib][Aib]EG[Nle]STWS[Aib]RKK[PEG2″][PEG2″][PEG2″][PEG2″]K([γGlu-γGlu-γGlu-γGlu-Stearoyl])-NH2 [peptide of SEQ ID NO: 15] were, in that order, 0.32 nM and 92%.

B3: peptide of SEQ ID NO: 145 (peptide)
peptide: Ac-LEGREKVRAK(Ac)I[Aib][Aib]EG[Nle]STFSXRKK(Ac)[PEG2′][PEG2′][PEG2′][PEG2′][γGlu][γGlu][γGlu]K([γGlu-Palmitoyl])-NH2
modifications: not fully specified (some residues); printed as Ac-L-E-G-R-E-K-V-R-A-K(Ac)-I-Aib-Aib-E-G-Nle-S-T-F-S-Mly-R-K-K(Ac)-PEG2-PEG2-PEG2-PEG2-gE-gE-gE-K(gE-Palm)-NH2
B3: the “EC50 (nM), OVCAR 5 cells (cAMP)” value stood at 0.4 nM and the “EMax, OVCAR 5 cells (cAMP)” value came to 99%.
Regarding Ac-LEGREKVRAK(Ac)I[Aib][Aib]EG[Nle]STFS[αMeK]RKK(Ac)[PEG2′][PEG2′][PEG2′][PEG2′]K([γGlu-γGlu-γGlu-γGlu-Palmitoyl])-NH2 [peptide of SEQ ID NO: 143], the “EC50 (nM), OVCAR 5 cells (cAMP)” value worked out at 0.4 nM and the “EMax, OVCAR 5 cells (cAMP)” value came to 88%.
In the same order, the values of Ac-LEGREKVRAK(Ac)I[Aib][Aib]EG[Nle]STFS[αMeK]RAK(Ac)[PEG2″][PEG2″][PEG2″][PEG2″]K([γGlu-γGlu-γGlu-γGlu-Palmitoyl])-NH2 [peptide of SEQ ID NO: 150] are 0.07 nM and 92%.
In the same order, the values of Ac-LEGREKVRAK(Ac)I[Aib][Aib]EG[Nle]STFS[Aib]RKK(Ac)K([PEG2′-PEG2′-PEG2′-PEG2′-γGlu-γGlu-γGlu-Palmitoyl])-NH2 [peptide of SEQ ID NO: 153] are 0.26 nM and 89%.
In the case of Ac-LEGREKVRAK(Ac)I[Aib][Aib]EG[Nle]STFS[αMeK][Arg(Me)]AK(Ac)[PEG2″][PEG2″][PEG2″][PEG2″][γGlu][γGlu][γGlu]K([γGlu-Palmitoyl])-NH2 [peptide of SEQ ID NO: 151], the “EC50 (nM), OVCAR 5 cells (cAMP)” value came to 0.14 nM and the “EMax, OVCAR 5 cells (cAMP)” value was determined as 90%.
In the same order, the values of Ac-LEGREKVRAK(Ac)I[Aib][Aib]EG[Nle]STWS[αMeK]RKK(Ac)[PEG2″][PEG2″][PEG2″]K([γGlu-γGlu-γGlu-γGlu-Stearoyl])-NH2 [peptide of SEQ ID NO: 16] are 0.02 nM and 87%.
Regarding Ac-LEGREKVRAK(Ac)I[Aib][Aib]EG[Nle]STFS[αMeK]RKK(Ac)K([PEG2′-PEG2′-PEG2′-PEG2′-γGlu-γGlu-γGlu-γGlu-Palmitoyl])-NH2 [peptide of SEQ ID NO: 140], the “EC50 (nM), OVCAR 5 cells (cAMP)” value was determined as 0.4 nM and the “EMax, OVCAR 5 cells (cAMP)” value is 88%.

B4: peptide of SEQ ID NO: 2 (peptide)
peptide: Ac-LEGREKVRAQI[Aib][Aib]EG[Nle]STWS[Aib]RKK([γGlu-Palmitoyl])-NH2
SMILES: CCCCCCCCCCCCCCCC(=O)N[C@@H](CCC(=O)NCCCC[C@H](NC(=O)[C@H](CCCCN)NC(=O)[C@H](CCCNC(=N)N)NC(=O)C(C)(C)NC(=O)[C@H](CO)NC(=O)[C@H](Cc1c[nH]c2ccccc12)NC(=O)[C@@H](NC(=O)[C@H](CO)NC(=O)[C@H](CCCC)NC(=O)CNC(=O)[C@H](CCC(=O)O)NC(=O)C(C)(C)NC(=O)C(C)(C)NC(=O)[C@@H](NC(=O)[C@H](CCC(N)=O)NC(=O)[C@H](C)NC(=O)[C@H](CCCNC(=N)N)NC(=O)[C@@H](NC(=O)[C@H](CCCCN)NC(=O)[C@H](CCC(=O)O)NC(=O)[C@H](CCCNC(=N)N)NC(=O)CNC(=O)[C@H](CCC(=O)O)NC(=O)[C@H](CC(C)C)NC(C)=O)C(C)C)[C@@H](C)CC)[C@@H](C)O)C(N)=O)C(=O)O
With B4, the “EC50 (nM), OVCAR 5 cells (cAMP)” value was 24 nM and the “EMax, OVCAR 5 cells (cAMP)” value was found to be 100%.
With Ac-LEGREKVRAK(Ac)I[Aib][Aib]EG[Nle]STFS[Aib]RKK(Ac)[PEG2′][PEG2′][PEG2′][PEG2′]K([γGlu-γGlu-γGlu-Palmitoyl])-NH2 [peptide of SEQ ID NO: 144], the “EC50 (nM), OVCAR 5 cells (cAMP)” value turned out to be 4.1 nM and the “EMax, OVCAR 5 cells (cAMP)” value was determined as 94%.
In the same order, the values of Ac-LEGREKVRAK(Ac)I[Aib][Aib]EG[Nle]STFS[Aib]RKK(Ac)K([PEG2′-PEG2′-PEG2′-PEG2′-γGlu-γGlu-γGlu-γGlu-Palmitoyl])-NH2 [peptide of SEQ ID NO: 147] are 2.14 nM and 86%.

B5: peptide of SEQ ID NO: 146 (peptide)
peptide: Ac-LEGREKVRAK(Ac)I[Aib][Aib]EG[Nle]STFS[αMeK]RKK(Ac)[TTDS(3)][TTDS(3)][γGlu][γGlu][γGlu]K([γGlu-Palmitoyl])-NH2
SMILES: CCCCCCCCCCCCCCCC(=O)N[C@@H](CCC(=O)NCCCC[C@H](NC(=O)CC[C@H](NC(=O)CC[C@H](NC(=O)CC[C@H](NC(=O)CCC(=O)NCCCOCCOCCOCCCNC(=O)CCC(=O)NCCCOCCOCCOCCCNC(=O)[C@H](CCCCNC(C)=O)NC(=O)[C@H](CCCCN)NC(=O)[C@H](CCCNC(=N)N)NC(=O)[C@](C)(CCCCN)NC(=O)[C@H](CO)NC(=O)[C@H](Cc1ccccc1)NC(=O)[C@@H](NC(=O)[C@H](CO)NC(=O)[C@H](CCCC)NC(=O)CNC(=O)[C@H](CCC(=O)O)NC(=O)C(C)(C)NC(=O)C(C)(C)NC(=O)[C@@H](NC(=O)[C@H](CCCCNC(C)=O)NC(=O)[C@H](C)NC(=O)[C@H](CCCNC(=N)N)NC(=O)[C@@H](NC(=O)[C@H](CCCCN)NC(=O)[C@H](CCC(=O)O)NC(=O)[C@H](CCCNC(=N)N)NC(=O)CNC(=O)[C@H](CCC(=O)O)NC(=O)[C@H](CC(C)C)NC(C)=O)C(C)C)[C@@H](C)CC)[C@@H](C)O)C(=O)O)C(=O)O)C(=O)O)C(N)=O)C(=O)O
On to B5, for which the “EC50 (nM), OVCAR 5 cells (cAMP)” value was determined as 0.02 nM and the “EMax, OVCAR 5 cells (cAMP)” value came to 89%.
For the molecule Ac-LEGREKVRAK(Ac)I[Aib][Aib]EG[Nle]ST[αMeF]S[αMeK]RAK(Ac)[PEG2″][PEG2″][PEG2″][PEG2″][γGlu][γGlu][γGlu]K([γGlu-Palmitoyl])-NH2 [peptide of SEQ ID NO: 152], the “EC50 (nM), OVCAR 5 cells (cAMP)” value worked out at 0.04 nM and the “EMax, OVCAR 5 cells (cAMP)” value stood at 91%.
